In test [1] the target is T1, BubR1/Bub3 complex (3×FLAG–BubR1 with untagged Bub3) (UniProt O60566 1-1050; O43684 1-328). As to the kind of experiment: MST.
Test [2] has as its target Bub1(1–553)/Bub3 complex (3×FLAG–Bub1(1–553) with untagged Bub3) (UniProt O43683 1-553; O43684 1-328). The test is described as follows: MST.
For test [3], the target named is T1, BubR1/Bub3 complex (3×FLAG–BubR1 with …). As to the kind of experiment: MST; 0 mM NaCl.
Test [4] shares this target. The test is described as follows: MST; 50 mM NaCl.
For test [5] the target is unchanged. As to the kind of experiment: MST; 150 mM NaCl.
The target is the same in test [6]. As to the kind of experiment: MST; 200 mM NaCl.

Non-standard residues stand in square brackets, D forms with d. No end group written: not given here. pT = C[C@@H](OP(=O)(O)O)[C@H](N)C(=O)O; Nle = CCCC[C@H](N)C(=O)O

Sequence of Bub1(1–553)/Bub3 complex (3×FLAG–Bub1(1–553) with untagged Bub3) (O43683 1-553, chain 1 of 2): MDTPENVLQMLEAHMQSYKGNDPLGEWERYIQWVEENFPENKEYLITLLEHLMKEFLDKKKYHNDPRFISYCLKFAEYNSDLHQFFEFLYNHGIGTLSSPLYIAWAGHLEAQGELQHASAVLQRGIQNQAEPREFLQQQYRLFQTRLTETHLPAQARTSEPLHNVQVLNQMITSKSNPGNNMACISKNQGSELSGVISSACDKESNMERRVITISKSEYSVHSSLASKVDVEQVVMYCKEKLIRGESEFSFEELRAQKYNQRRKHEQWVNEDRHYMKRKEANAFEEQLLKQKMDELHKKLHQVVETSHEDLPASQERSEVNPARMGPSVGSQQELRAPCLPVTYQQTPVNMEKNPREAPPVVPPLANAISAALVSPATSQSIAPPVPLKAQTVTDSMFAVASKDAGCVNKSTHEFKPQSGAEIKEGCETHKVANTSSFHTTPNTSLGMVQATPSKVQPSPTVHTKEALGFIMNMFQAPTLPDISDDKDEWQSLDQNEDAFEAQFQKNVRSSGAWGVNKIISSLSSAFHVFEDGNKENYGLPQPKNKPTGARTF
Sequence of Bub1(1–553)/Bub3 complex (3×FLAG–Bub1(1–553) with untagged Bub3) (O43684 whole entry, chain 2 of 2): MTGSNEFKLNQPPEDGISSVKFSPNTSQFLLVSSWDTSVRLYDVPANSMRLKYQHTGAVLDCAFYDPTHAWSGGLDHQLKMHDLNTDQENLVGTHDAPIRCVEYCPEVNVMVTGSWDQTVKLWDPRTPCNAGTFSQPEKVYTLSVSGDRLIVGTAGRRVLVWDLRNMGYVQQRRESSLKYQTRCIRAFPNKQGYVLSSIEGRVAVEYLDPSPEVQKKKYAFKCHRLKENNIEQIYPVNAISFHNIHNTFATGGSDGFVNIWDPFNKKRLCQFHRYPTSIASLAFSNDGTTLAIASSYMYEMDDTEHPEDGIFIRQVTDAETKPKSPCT
T1 sequence (O60566 whole entry, chain 1 of 2): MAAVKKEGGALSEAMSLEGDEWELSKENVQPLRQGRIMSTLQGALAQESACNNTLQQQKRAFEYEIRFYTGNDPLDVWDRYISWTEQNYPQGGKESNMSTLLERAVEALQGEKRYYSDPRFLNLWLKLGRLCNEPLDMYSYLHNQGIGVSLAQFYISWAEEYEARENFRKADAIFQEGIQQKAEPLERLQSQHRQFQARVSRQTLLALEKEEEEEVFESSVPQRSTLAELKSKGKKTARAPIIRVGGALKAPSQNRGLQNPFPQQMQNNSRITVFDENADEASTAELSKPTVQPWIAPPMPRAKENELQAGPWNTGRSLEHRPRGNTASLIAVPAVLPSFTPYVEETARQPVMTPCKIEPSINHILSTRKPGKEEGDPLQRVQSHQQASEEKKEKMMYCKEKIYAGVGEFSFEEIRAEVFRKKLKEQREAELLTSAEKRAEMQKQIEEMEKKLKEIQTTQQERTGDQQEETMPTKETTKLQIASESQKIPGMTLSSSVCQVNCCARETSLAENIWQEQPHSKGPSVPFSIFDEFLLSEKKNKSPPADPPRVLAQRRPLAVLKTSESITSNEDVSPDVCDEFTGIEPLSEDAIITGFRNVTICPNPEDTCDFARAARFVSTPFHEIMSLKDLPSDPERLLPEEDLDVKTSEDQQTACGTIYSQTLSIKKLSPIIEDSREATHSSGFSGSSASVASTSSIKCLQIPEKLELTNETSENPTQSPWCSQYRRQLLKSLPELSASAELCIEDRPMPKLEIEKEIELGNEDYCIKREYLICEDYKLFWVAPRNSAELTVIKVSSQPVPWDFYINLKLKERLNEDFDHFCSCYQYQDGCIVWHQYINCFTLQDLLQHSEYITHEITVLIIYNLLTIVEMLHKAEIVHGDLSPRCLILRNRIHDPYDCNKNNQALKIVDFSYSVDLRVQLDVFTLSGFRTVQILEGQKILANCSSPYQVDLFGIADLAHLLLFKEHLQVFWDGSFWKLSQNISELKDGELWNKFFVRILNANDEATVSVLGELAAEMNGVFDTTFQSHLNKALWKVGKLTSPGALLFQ
T1 sequence (O43684 whole entry, chain 2 of 2): as the sequence (O43684 whole entry, chain 2 of 2) above

B1: MELT16p peptide, ENHKND-NIe-DI-Tp-QSC-NIe-VEIDY-amide (peptide)
peptide: ENHKND[Nle]DI[pT]QSC[Nle]VEIDY-NH2
modifications: N-terminus assumed
SMILES: CCCC[C@H](NC(=O)[C@H](CC(=O)O)NC(=O)[C@H](CC(N)=O)NC(=O)[C@H](CCCCN)NC(=O)[C@H](Cc1c[nH]cn1)NC(=O)[C@H](CC(N)=O)NC(=O)[C@@H](N)CCC(=O)O)C(=O)N[C@@H](CC(=O)O)C(=O)N[C@H](C(=O)N[C@H](C(=O)N[C@@H](CCC(N)=O)C(=O)N[C@@H](CO)C(=O)N[C@@H](CS)C(=O)N[C@@H](CCCC)C(=O)N[C@H](C(=O)N[C@@H](CCC(=O)O)C(=O)N[C@H](C(=O)N[C@@H](CC(=O)O)C(=O)N[C@@H](Cc1ccc(O)cc1)C(N)=O)[C@@H](C)CC)C(C)C)[C@@H](C)OP(=O)(O)O)[C@@H](C)CC
With B1, the Kd (in general, the equilibrium constant for the complex coming apart) is 286 nM in test [1] and 757 nM in test [2].

B2: MELT12 peptide (unphosphorylated), Btn-PEG2-C-PEG2-EDDKND-Nle-DI-T-KSYTIEIN-amide (peptide)
peptide: EDDKNDMDITKSYTIEIN
modifications: N-terminal Btn-PEG2-C-PEG2 (biotin, PEG2, cysteine, PEG2); Nle (norleucine) at position 7 of the letters, written here as M; C-terminal amide
With B2, the figures for the Kd in test [1] and in test [2] were > 195000 nM and > 379000 nM, respectively.

B3: MELT12p peptide (MDIT phosphorylated), Btn-PEG2-C-PEG2-EDDKND-Nle-DI-Tp-KSYTIEIN-amide (peptide)
peptide: EDDKNDMDITKSYTIEIN
modifications: N-terminal Btn-PEG2-C-PEG2 (biotin, PEG2, cysteine, PEG2); Nle (norleucine) at position 7 of the letters, written here as M; phosphothreonine (Tp) at position 10 of the letters (MDIT); C-terminal amide
As to B3, the Kd in test [1] was determined as 258 nM; in test [2], 579 nM; in test [3], 82 nM; in test [4], 259 nM; in test [5], 379 nM; in test [6], 936 nM.

The record behind these values is PMC4963475 (2016).
